T1: human MCP-2 (human, UniProt P80075 24-99)
T1 construct: also called hMCP-2; huMCP-2
T1 sequence (looked up): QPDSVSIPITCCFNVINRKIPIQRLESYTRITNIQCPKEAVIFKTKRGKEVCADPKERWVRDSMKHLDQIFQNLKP

T2: human fractalkine (human, UniProt P78423 25-100, limits assumed)
T2 sequence (looked up): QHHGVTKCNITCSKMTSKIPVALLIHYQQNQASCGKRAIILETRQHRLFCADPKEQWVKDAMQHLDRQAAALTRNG

T3: human DC-CK (human, UniProt P55774 21-89, limits assumed)
T3 construct: reading it as DC-CK1/CCL18 is mine
T3 sequence (looked up): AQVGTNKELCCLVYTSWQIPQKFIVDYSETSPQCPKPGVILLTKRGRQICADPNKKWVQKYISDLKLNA

B1: 1A1 Fab (Fab, V domains shown)
VH: EVQLQQSGAELVRSGASVKLSCTASGFNIKDNYMHWVKQRPEQGLEWIGWIDPENGDTEYAPKFQGKATMTADTSSNTAYLQLSSLTSEDTAVYYCNTWAYYGTSYGGFAYWGQGTTVTVSS
VL: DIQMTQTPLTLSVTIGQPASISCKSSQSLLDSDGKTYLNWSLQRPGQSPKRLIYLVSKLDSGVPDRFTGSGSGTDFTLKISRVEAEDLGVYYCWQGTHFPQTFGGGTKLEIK
notes: Fab of the murine IgG1 mAb; also called Fab fragment of 1A1
B2: 1A1 (antibody, IgG1, V domains shown)
VH: B1 VH
VL: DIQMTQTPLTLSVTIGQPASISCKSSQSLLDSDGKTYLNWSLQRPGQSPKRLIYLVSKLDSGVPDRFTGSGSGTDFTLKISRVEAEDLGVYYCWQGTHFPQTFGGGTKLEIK
notes: ATCC PTA-3990; also called 1A1.1; 1A1 mAb
B3: 11K2 (antibody, IgG1, V domains shown)
VH: EVQLQQSGAELVKAGASVKLSCPASGLNIKDTYMHWVKQRPEQGLEWIGRIDPANGNTKFDPKFQGKATITADTSSNTAYLQLSSLTSEDTAVYYCARGVFGFFDYWGQGTTLTVSS
VL: DIQMTQSSSSFSVSLGDRVTITCKATEDIYNRLAWYQQKPGSAPRLLISGATSLETGVPSRFSGSGSGKDYTLSITSLQTEDVATYYCQQFWSAPYTFGGGTKLEIK
notes: ATCC PTA-3987; also called 11K2.1; 11K2 mAb
B4: 6I5 (antibody, IgG1, V domains shown)
VH: B3 VH
VL: B3 VL
notes: IgG1; ATCC PTA-3986; also called 615; 6I5.1
B5: 5A13 (antibody, IgG1, V domains shown)
VH: B3 VH
VL: B3 VL
notes: IgG1; ATCC PTA-3995; also called 5A13.1
B6: 4N4 (antibody, IgG1, V domains shown)
VH: B3 VH
VL: B3 VL
notes: IgG1; ATCC PTA-3994; also called 4N4.1
B7: 7H1 (antibody, IgG1, V domains shown)
VH: B3 VH
VL: B3 VL
notes: IgG1; ATCC PTA-3985; also called 7H1.1
B8: 6D21 (antibody, IgG1, V domains shown)
VH: B3 VH
VL: B3 VL
notes: IgG1; ATCC PTA-3989; also called 6D21.1
B9: 11K2 Fab (Fab, V domains shown)
VH: B3 VH
VL: B3 VL
notes: Fab of the murine IgG1 mAb; also called Fab fragment of 11K2

A value given as a limit tells only on which side of the number the result lay.

The target of the first test is T1, human MCP-2. In words: KinExA kinetic exclusion assay, in solution; Fab (monovalent), not whole mAb. The procedure: (§1) Polymethylmethacrylate beads activated with NHS were coated with 10 μg recombinant human MCP-1 in 1 ml buffer. The beads were packed into a column in the KinExA instrument for each sample. This packed bead column is able to capture free MCP mAb or Fab flowed through the column. The amount of free mAb or Fab in solution was determined using a secondary goat anti-mouse heavy and light chain IgG-Cy5 conjugate.
(§2) A fixed amount of 11K2 mAb, 1A1 mAb, 11K2 Fab, or 1A1 Fab was incubated with various amounts of human MCP-1, MCP-2 or MCP-3 for three hours. The amount of uncomplexed free antibody remaining in solution was determined by flowing these mixtures over the MCP-1-loaded bead column and labeling with the Cy5 secondary antibody. The fluorescent signal was plotted against the MCP concentration and the affinity was determined using a quadratic curve fit
For orientation: A kinetic exclusion assay measures how much of one partner remains free in solution.
B1 had a Kd of 320 pM.

For the next test, the target named is T1, human MCP-2. Briefly: KinExA kinetic exclusion assay, in solution; whole mAb (bivalent IgG1), not Fab. The procedure:
as §1, §2
The molecule B2 returned a Kd of 1.2 pM.

The target in a further test is T2, human fractalkine. In words: ELISA, hybridoma supernatant. How it is done:
(§3) MaxiSorp 384 well plates were coated with 15-20 μl antigen in PBS. Recombinant purified human antigens included: MCP-1, MCP-2, MCP-3, MCP-4, IL-8, eotaxin, fractalkine, Gcp-2, DC-CK (Gcp-2 and DC-CK are also chemokines). Plates were incubated with antigen for 2 hours at 37° C. or overnight at 4° C. Non-specific sites were blocked with 80 μl/well of 1% BSA/PBS for 1 hour at room temperature. Plates were washed and 15 μl of hybridoma supernatant was added to each well and incubated for 1 hour at room temperature. Plates were washed and wells were incubated with 20 μl/well of a 1:25 000 dilution of goat anti-mouse IgG peroxidase conjugate (Jackson Catalog Number 515-036-003). Plates were incubated for 1 hour at room temperature, washed, and 20 μl/well of substrate (TMB, tetramethylbenzidine, Jackson, Catalog Number 515-036-062) was added. Reaction was allowed to proceed and stopped by addition of 20 μl/well of 2M H₂SO₄. Reactive clones were picked for further analysis. Isotyping of hybridoma supernatants was performed by antigen-dependent ELISA. Briefly, wells were coated with 50 μl of human MCP-1 (5 μg/ml) for 1 hour at 37° C. Wells were washed 4 times and blocked with PBS/1% BSA. Isotyping of hybridoma supernatants was then performed using a mouse immunoglobulin screening/isotyping kit (Zymed Laboratories, San Francisco, Calif.) as recommended by the manufacturer.
In general terms: ELISA stands for enzyme-linked immunosorbent assay.
In the case of B2, the binding result was “no binding”.

Turning to B3, the binding result is reported as “no binding”.

As for B4, the binding result is “no binding”.

Regarding B5, the binding result is recorded as “no binding”.

Turning to B6, the binding result is given as “no binding”.

In the case of B7, the binding result is reported as “no binding”.

Turning to B8, the binding result was “no binding”.

Another test addresses human Gcp-2 (human, UniProt P80162 38-114, limits assumed). Briefly: ELISA, hybridoma supernatant. The procedure:
as §3
As for B2, the binding result is recorded as “no binding”.

As to B3, the binding result is “no binding”.

Regarding B4, the binding result is reported as “no binding”.

B5: the binding result is reported as “no binding”.

Consider B6, for which the binding result was “no binding”.

With B7, the binding result is “no binding”.

B8: the binding result is “no binding”.

A further test deals with T3, human DC-CK. In words: ELISA, hybridoma supernatant. How it is done: as §3
As to B2, the binding result is listed as “no binding”.

Regarding B3, the binding result is listed as “no binding”.

On to B4, for which the binding result is recorded as “no binding”.

With B5, the binding result is listed as “no binding”.

As to B6, the binding result is listed as “no binding”.

Consider B7, for which the binding result is “no binding”.

With B8, the binding result was “no binding”.

The next test addresses T4, human MCP-4 (human, UniProt Q99616 24-98, limits assumed).
T4 construct: also called hMCP-4
In words: ELISA, purified mAb. How it is done:
(§4) ELISA specificity assays were performed using purified monoclonal antibodies to confirm the binding specificities of the supernatant MCP-specific monoclonal antibodies described above. Antibodies were purified by Protein A affinity column chromatography, according to standard methods known in the art.
(§5) ELISA was performed as previously described in Example 1. Briefly, MaxiSorp 384 well plates were coated with 15-20 μl antigen in PBS. Recombinant purified human antigens included: MCP-1, MCP-2, MCP-3, MCP-4, IL-8, eotaxin, murine MCP-1 (JE), murine MCP-3, murine MCP-5, and rat MCP-1. All antigens, including MCP-3, were immobilized. Plates were washed and purified monoclonal antibody (10 μg/ml) was added to each well and incubated for 1 hour at room temperature. Plates were washed and wells were incubated with 20 μl/well of a 1:25,000 dilution of goat anti-mouse IgG peroxidase conjugate (Jackson Catalog Number 515-036-003). Plates were incubated for 1 hour at room temperature, washed, and 20 μl/well of substrate (TMB, tetramethylbenzidine, Jackson, Catalog Number 515-036-062) was added. Reaction was allowed to proceed and stopped by addition of 20 μl/well of 2M H₂SO₄. Antibodies 1A1 bound specifically to hMCP-1, hMCP-2, hMCP-3, and mMCP-1. Antibodies 11K2, 4N4, 5A 13, 6D21, 6I5, and 7H1 bound specifically to hMCP-1, hMCP-2, hMCP-3, mMCP-1, mMCP-3, and mMCP-5.
Regarding B2, the binding result is recorded as “no binding (tested: 10 ug/ml)”.

Regarding B3, the binding result is given as “no binding (tested: 10 ug/ml)”.

Take B4: the binding result is listed as “no binding (tested: 10 ug/ml)”.

For the molecule B5, the binding result is reported as “no binding (tested: 10 ug/ml)”.

B6: the binding result is recorded as “no binding (tested: 10 ug/ml)”.

B7: the binding result is listed as “no binding (tested: 10 ug/ml)”.

With B8, the binding result is reported as “no binding (tested: 10 ug/ml)”.

In a further test the target is T5, human eotaxin (human, UniProt P51671 24-97).
T5 construct: also called hEotaxin
In words: ELISA, purified mAb. The procedure: as §4, §5
In the case of B2, the binding result is recorded as “no binding (tested: 10 ug/ml)”.

B3: the binding result is reported as “no binding (tested: 10 ug/ml)”.

Take B4: the binding result is reported as “no binding (tested: 10 ug/ml)”.

As for B5, the binding result is “no binding (tested: 10 ug/ml)”.

Regarding B6, the binding result is recorded as “no binding (tested: 10 ug/ml)”.

For B7, the binding result is recorded as “no binding (tested: 10 ug/ml)”.

For the molecule B8, the binding result is “no binding (tested: 10 ug/ml)”.

The next test deals with T6, human IL-8 (human, UniProt P10145 28-99, limits assumed).
T6 construct: also called hIL8
In words: ELISA, purified mAb. How it is done:
as §4, §5
Consider B2, for which the binding result was “no binding (tested: 10 ug/ml)”.

Consider B3, for which the binding result was “no binding (tested: 10 ug/ml)”.

Turning to B4, the binding result was “no binding (tested: 10 ug/ml)”.

Turning to B5, the binding result was “no binding (tested: 10 ug/ml)”.

B6: the binding result was “no binding (tested: 10 ug/ml)”.

Take B7: the binding result was “no binding (tested: 10 ug/ml)”.

B8: the binding result is “no binding (tested: 10 ug/ml)”.

For a further test, the target named is T7, cynomolgus MCP-1 (cynomolgus, UniProt P61274 24-99).
T7 construct: also called primate MCP-1
In words: ELISA, 1 ug/ml synthetic chemokine coated, mAb 10 ug/ml. The procedure: as §3
(§6) In addition, both 1A1 and 11K2 mAbs recognize primate MCP-1. Plates were coated with 1 μg/ml of chemically synthesized chemokines (corresponding to the cynomolgus and rhesus MCP-1 sequences) and probed with 10 μg/ml of monoclonal antibodies, including MOPC21, 1l K2, 3N10, 1A1, D9, and 1M11, as described above.
Consider B2, for which the binding result is listed as “binds”.

Take B3: the binding result is given as “binds”.

The target in a further test is T8, rhesus MCP-1 (rhesus, UniProt P61275 24-99).
T8 construct: also called primate MCP-1
The description is as above. The procedure: as §3, §6
On to B2, for which the binding result is “binds”.

As to B3, the binding result is recorded as “binds”.

In a further test the target is T9, human MCP-1 (human, UniProt P13500 24-99).
T9 construct: also called hMCP-1; huMCP-1
In words: KinExA kinetic exclusion assay, in solution. How it is done:
as §1, §2
Take B2: the Kd was less than 0.7 pM.

B1 gave a Kd of 13 pM.

B3 displayed a Kd of less than 0.4 pM.

The molecule B9 had a Kd of 11 pM.

Another test deals with T1, human MCP-2. Briefly: KinExA kinetic exclusion assay, in solution. How it is done:
as §1, §2
B3 registered a Kd of 18 pM.

Consider B9, for which the Kd is 430 pM.
